As usually defined, the Kd is the equilibrium constant for the complex coming apart. A lower Kd goes with a tighter complex. In general, kon refers to a measure of how fast the partners come together.

Among the data in patent publication US20230310584A1 (published 2023) are Kd and kon values, retold here.

Several values for one entry are separate records, joined by “and”; a condition that tells them apart may be missing. Identical values can stand only once.

The test concerns the target RBD-iFcv1 (SARS-CoV-2; human, 23 residues replaced …).

B1: His-tagged CD64 (Acrobiosystems, FCA-H52H1) (receptor)
chain: QVDTTKAVITLQPPWVSVFQEETVTLHCEVLHLPGSSSTQWFLNGTATQTSTPSYRITSASVNDSGEYRCQRGLSGRSDPIQLEIHRGWLLLQVSSRVFTEGEPLALRCHAWKDKLVYNVLYYRNGKAFKFFHWNSNLTILKTNISHNGTYHCSGMGKHRYTSAGISVTVKELFPAPVLNASVTSPLLEGNLVTLSCETKLLLQRPGLQLYFSFYMGSKTLRGRNTSSEYQILTARREDSGLYWCEAATEDGNVLKRSPELELQVLGLQLPTP
Turning to B1, the Kd is 2.34 nM and 1.61 nM and 0.963 nM; the kon is 260000 M⁻¹ s⁻¹ and 189000 M⁻¹ s⁻¹ and 200000 M⁻¹ s⁻¹.
